{"source": "patent US20080233097A1", "about": "“Phosphorylation Site Of Mitogen-Activated Protein Kinases, Modified Proteins And Applications” (UNIVERSIDAD AUTONOMA DE MADRID, priority 2005, published 2008)", "molecules": {"B1": {"name": "Recombinant GRK2 purified by the Baculovirus system (from infected Sf9 cells) (protein)", "chain": "MADLEAVLADVSYLMAMEKSKATPAARASKKILLPEPSIRSVMQKYLEDRGEVTFEKIFSQKLGYLLFRDFCLKHLEEAKPLVEFYEEIKKYEKLETEEERLVCSREIFDTYIMKELLACSHPFSKSAIEHVQGHLVKKQVPPDLFQPYIEEICQNLRGDVFQKFIESDKFTRFCQWKNVELNIHLTMNDFSVHRIIGRGGFGEVYGCRKADTGKMYAMKCLDKKRIKMKQGETLALNERIMLSLVSTGDCPFIVCMSYAFHTPDKLSFILDLMNGGDLHYHLSQHGVFSEADMRFYAAEIILGLEHMHNRFVVYRDLKPANILLDEHGHVRISDLGLACDFSKKKPHASVGTHGYMAPEVLQKGVAYDSSADWFSLGCMLFKLLRGHSPFRQHKTKDKHEIDRMTLTMAVELPDSFSPELRSLLEGLLQRDVNRRLGCLGRGAQEVKESPFFRSLDWQMVFLQKYPPPLIPPRGEVNAADAFDIGSFDEEDTKGIKLLDSDQELYRNFPLTISERWQQEVAETVFDTINAETDRLEARKKTKNKQLGHEEDYALGKDCIMHGYMSKMGNPFLTQWQRRYFYLFPNRLEWRGEGEAPQSLLTMEEIQSVEETQIKERKCLLLKIRGGKQFVLQCDSDPELVQWKKELRDAYREAQQLVQRVPKMKNKPRSPVVELSKVPLIQRGSANGL"}, "B2": {"name": "p38T123A: p38α mutant form that cannot be phosphorylated by GRK2 (protein, UniProt P47811 2-360, looked up, variant T123A)", "Mitogen-activated protein …": "SQERPTFYRQELNKTIWEVPERYQNLSPVGSGAYGSVCAAFDTKTGHRVAVKKLSRPFQSIIHAKRTYRELRLLKHMKHENVIGLLDVFTPARSLEEFNDVYLVTHLMGADLNNIVKCQKLADDHVQFLIYQILRGLKYIHSADIIHRDLKPSNLAVNEDCELKILDFGLARHTDDEMTGYVATRWYRAPEIMLNWMHYNQTVDIWSVGCIMAELLTGRTLFPGTDHIDQLKLILRLVGTPGAELLKKISSESARNYIQSLAQMPKMNFANVFIGANPLAVDLLEKMLVLDSDKRITAAQALAHAYFAQYHDPDDEPVADPYDQSFESRDLLIDEWKSLTYDEVISFVPPPLDQEEMES", "modifications": "GST fusion in some forms", "notes": "p38α mutant form that cannot be phosphorylated by GRK2"}}, "key": {"p38": {"target": "T1, p38 (Mus musculus, UniProt P47811)", "T1 construct": "with whole p38α in the same conditions as described in section A; made in house; host or cells: E. coli", "T1 sequence (P47811 whole entry)": "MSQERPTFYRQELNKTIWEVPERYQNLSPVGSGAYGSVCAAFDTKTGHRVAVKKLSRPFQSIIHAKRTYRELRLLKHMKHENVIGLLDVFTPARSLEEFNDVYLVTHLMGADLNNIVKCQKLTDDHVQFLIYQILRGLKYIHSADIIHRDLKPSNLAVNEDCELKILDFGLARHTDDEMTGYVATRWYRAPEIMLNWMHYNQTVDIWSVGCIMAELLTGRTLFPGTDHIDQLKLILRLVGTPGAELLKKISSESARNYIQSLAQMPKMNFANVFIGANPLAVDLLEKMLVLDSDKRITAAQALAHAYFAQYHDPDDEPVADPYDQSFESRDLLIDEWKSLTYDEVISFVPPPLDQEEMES", "experiment": "effect of heparin on catalytic activity of p38", "type": "biochemical", "from_the_text": "Subsequently, the inventors decided to study the possible interactions between GRK2 and p38. The first experimental approach was the phosphorylation assays of both proteins. […] These experiments were completed with negative controls of GST phosphorylation by GRK2 and by inspecting the binding area between the GST portion and the ORF of p38."}, "[1]": {"target": "T2, GST-p38 (wild type p38α fused to GST, from pGEX2T-p38α)", "T2 chain": "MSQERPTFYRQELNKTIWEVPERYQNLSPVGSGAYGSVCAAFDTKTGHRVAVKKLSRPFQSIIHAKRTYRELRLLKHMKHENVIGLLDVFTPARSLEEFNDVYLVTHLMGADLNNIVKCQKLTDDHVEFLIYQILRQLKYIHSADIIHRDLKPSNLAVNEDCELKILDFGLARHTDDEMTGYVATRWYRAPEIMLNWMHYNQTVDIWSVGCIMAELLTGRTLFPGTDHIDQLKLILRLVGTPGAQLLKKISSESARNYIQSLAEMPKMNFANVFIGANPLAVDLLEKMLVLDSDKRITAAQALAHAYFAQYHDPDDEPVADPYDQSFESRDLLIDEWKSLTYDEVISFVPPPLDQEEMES"}, "[2]": {"target": "T3, GST-280-360p38 (last 80 amino acids of p38α fused to GST, from pDEST15)", "T3 chain": "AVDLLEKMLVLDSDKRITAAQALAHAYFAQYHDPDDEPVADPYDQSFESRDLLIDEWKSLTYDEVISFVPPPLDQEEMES"}, "GRK2": {"target": "T4, GRK2 (Bos taurus, UniProt P21146)", "T4 construct": "made in house; host or cells: Sf9 cells (baculovirus)", "T4 sequence (P21146 1-689)": "B1 chain", "experiment": "phosphorylation of p38 mutants and truncated proteins by GRK2 in vitro", "type": "biochemical", "conditions": "GST fusion proteins, 30 minutes at 30° C.", "experimental": "FIG. 6A: Proteins fused to GST (black rectangle in the protein schemes) were purified from bacteria transformed with the plasmids pGEX2T-p38α, pGEX4T-Mxi2 and pGEX4T-Mxi2Δ17: p38α, Mxi2 and Mxi2Δ17. The […] isoforms used as C-terminal truncated mutants for trying to limit the GRK2 phosphorylation site. […] Heparin (150 nM) was included as a specific GRK2 inhibitor. The reactions were stopped by adding SDS breaking buffer. The samples were resolved in 8% SDS-PAGE. For the purpose of assuring the inclusion of identical amounts of protein, they were first visualized in the gel by Coomassie Brilliant Blue (CBB) staining. Then the gel was dried and the radioactivity incorporated to the proteins (^32P) was detected. FIG. 6B: The truncated GST-280-360p38 protein, corresponding to the last 80 p38α amino acids, was generated by means of the Invitrogen Gateway system. Phosphorylation assays were carried out with Mxi2Δ17 as a p38 N-terminal, 280-360 p38 as C-terminal and with whole p38α in the same conditions as described in section A. The phosphorylation was detected by autoradiography (^32P) and controls of the amount of protein used in the assays were carried out concomitantly by Western blot with the anti-GST antibody. The presence of the GST-280-360p38 protein, which is not phosphorylated, is clearly observed. STD, mobility of standard molecular weight proteins.\nFIG. 9A: p38T123A and p38T123D proteins, fused to GST, were made by directed mutagenesis in the prokaryotic expression plasmids pGEX2T. The ability of the recombinant GST-p38T123A and GST-p38T123D proteins to be GRK2 substrates in comparison to the wild GST-p38WT protein and at the final concentrations indicated in the Figure was assayed. The upper panels represent the obtained phosphorylation (32 P) and the lower panels show, by anti-p38N WB, the amount of recombinant protein used in the assays. […]\nHeparin (150 nM) was included as a specific GRK2 inhibitor. […] Subsequently, the gel was dried and the radioactivity incorporated to the proteins (^32P) was detected. […]"}, "GST-MEF2A": {"test_system": "GST-MEF2A", "experiment": "phosphorylation of GST-MEF2A by p38", "type": "biochemical", "experimental": "FIG. 12A: In vitro phosphorylations are carried out with the fusion proteins indicated in the Figure, in the presence (+) or absence (−) of recombinant MKK6CAM(40 ng) and 2 μg of GST-MEF2A. The assay was left to take place for 30 minutes. The proteins were separated in 8% SDS-PAGE, stained with CBB and the incorporated radioactivity (^32P) was detected. Panels of a representative experiment of the three assays carried out independently are provided. FIG. 12B: The baseline activity of the three p38 fusion proteins in the absence of the MKK6CAM activator was evaluated in the previously described conditions. A representative autoradiography after a long exposure is shown.\n(§1) The ATF2 and MEF2A forms bound to GST were used to test the catalytic activity of GST-p38. In most cases, 2 μg of GST-ATF2 or GST-MEF2A, of own production, were used. The phosphorylation conditions are the same as set forth in the foregoing cases. Nevertheless, in other occasions, relevantly pointed out in the Figures, 0.2 μg of substrate were used and the phosphorylation reaction was allowed to take pace for 15 minutes only."}, "GST-ATF2": {"test_system": "GST-ATF2", "experiment": "phosphorylation of GST-ATF2 by MKK6CAM-activated p38", "type": "biochemical", "conditions": "with MKK6CAM, 2 μg GST-ATF2", "experimental": "(§2) The reactions were carried out at 30° C. for 30 minutes and the proteins were separated in 8% SDS-PAGE gels. The amount of p38 in each point was visualized by Coomassie Blue staining. Then the radioactivity in each p38 isoform was determined. […] FIG. 11B: In these same assays, the ability of MKK6CAM-activated GST-p38WT, GST-p38T123A and GST-p38T123D to phosphorylate 2 μg of GST-ATF2 is evaluated. The representative autoradiography (^32P) of the total GST-ATF2 control (Coomassie Blue) is attached.\nas §1"}, "MKK6CAM": {"test_system": "MKK6CAM", "experiment": "p38 phosphorylation by MKK6CAM in vitro", "type": "biochemical", "conditions": "150 nM fusion protein, 40 ng MKK6CAM", "experimental": "as §2\nAs in the previous cases, the reactions were left to take place at 30° C. for 30 minutes and the proteins were resolved in 8% SDS-PAGE gels. With the purpose of assuring the inclusion of identical amounts of protein, they were visualized in the gel by Coomassie Blue staining. Subsequently, the radioactivity incorporated in each p38 isoform was determined."}}, "data": [{"molecule": "heparin", "values": [{"measurement": "effect on catalytic activity of p38", "setting": "p38", "value": "does not affect the catalytic activity of p38"}]}, {"molecule": "B1", "values": [{"measurement": "phosphorylation by GRK2 (32P incorporation)", "setting": "GST-Mxi2, Q16539", "value": "With comparable amounts of p38α, Mxi2 and MxiΔ17, the last two were not phosphorylated by GRK2"}, {"measurement": "Km of p38 phosphorylation by GRK2", "setting": "[1]", "value": "the value of the Km=80 nM"}, {"measurement": "Michaelis-Menten constant (Km) of GST-p38 phosphorylation by GRK2", "setting": "[1]", "value": "Km=79.56 nM"}, {"measurement": "phosphorylation by GRK2 (32P incorporation)", "setting": "[2]", "value": "after purifying the fusion protein and testing it against GRK2, no trace whatsoever of phosphorylation was obtained"}, {"measurement": "phosphorylation by GRK2 (32P incorporation)", "setting": "GST-p38T123A", "value": "none of the two mutant is a GRK2 substrate"}, {"measurement": "phosphorylation by GRK2 (32P incorporation)", "setting": "GST-p38T123D", "value": "none of the two mutant is a GRK2 substrate"}, {"measurement": "phosphorylation by GRK2 (32P incorporation)", "setting": "GST-Mxi2Δ17, Q16539", "value": "With comparable amounts of p38α, Mxi2 and MxiΔ17, the last two were not phosphorylated by GRK2"}]}, {"molecule": "B2", "values": [{"measurement": "ability to be a GRK2 substrate (32P incorporation)", "setting": "GRK2", "value": "none of the two mutant is a GRK2 substrate"}, {"measurement": "baseline catalytic activity on MEF2A", "setting": "GST-MEF2A; absence of the activating kinase MKK6, long exposure", "value": "middle ground between p38αWT and p38Tα123D"}, {"measurement": "catalytic activity on MEF2A", "setting": "GST-MEF2A; with MKK6CAM, 2 μg GST-MEF2A", "value": "conserves the ability to phosphorylate this substrate"}, {"measurement": "catalytic activity on GST-ATF2", "setting": "GST-ATF2", "value": "phosphorylate it analogously"}, {"measurement": "phosphorylation by MKK6CAM (32P)", "setting": "MKK6CAM", "value": "correctly phosphorylated by MKK6CAM"}]}]}
